In series [1] the test system is PE-DTA-cleavage site-defensin (P6-P4' NS5A/B site of genotype 1b/1a).
Series [2] has as its system PE-DTA-mutated cleavage site-defensin.

This is an account of results in patent US20130202598.

As for recombinant MBP-scNS3 fusion, the “in vitro cleavage by NS3 (immunoblot with anti-PE antibodies)” value in series [1] is reported as “complete cleavage of the chimeric toxin”; in series [2], “resistant to cleavage by NS3”.
